Laboratory results published in patent US20070265189A1 (published 2007).

Tests used:
[1] = biological target: T1, human insulin receptor (HIR) (human, UniProt P06213 28-1382, limits assumed); test: competition with 125I-insulin, solubilised HIR
[2] = biological target: T2, Insulin receptor prepared according to Bass et al., 1996 (human, UniProt P06213 28-956, limits assumed); test: phage ELISA: IR ratio over background divided by IGF-1R ratio over background
T2 construct: extracellular domain; also called IR; soluble IR (Bass construct); not shown: immunoglobulin constant domains (Fc or lambda) of the Bass construct

[3] = biological target: T3, Soluble IGF-1R (R&D Systems, Cat. # 391-GR/CF) (UniProt P08069 31-935, limits assumed); test: phage ELISA: IGF-1R ratio over background divided by IR ratio over background
T3 construct: extracellular domain; also called sIGF-1R; IGFR

[4] = biological target: T3, Soluble IGF-1R (R&D Systems, Cat. # …)
[5] = biological target: T2, Insulin receptor prepared according to …
[6] = biological target: T4, recombinant human IGF-1R (rhIGF-1R) (human, UniProt P08069 31-935); test: TR-FRET; competitor against 15 nM b-20E2 on Eu-labeled rhIGF-1R
T4 construct: extracellular domain; Coated on plates in the DELFIA assay and Eu3+ (LANCE) labeled in the TR-FRET assays

[7] = biological target: T5, soluble human insulin receptor-immunoglobulin heavy chain chimera (sIR-Fc) (human, UniProt P06213 28-956, limits assumed); test: fluorescence polarization; competitor against 1 nM FITC-RP9 on sIR-Fc
T5 construct: extracellular domain; Construct of Bass et al., 1996; not shown: immunoglobulin heavy chain constant domains

[8] = biological target: T6, soluble HIR ectodomain (sIR) (human, UniProt P06213 28-956, limits assumed); test: FP on sIR, competitor FITC-RP9
T6 construct: extracellular domain
Source text: Fluorescence polarization assays (FP) were used for peptide competition studies.

[9] = biological target: T7, soluble human insulin receptor-immunoglobulin heavy chain chimera (sIR-Fc) (human, UniProt P06213 28-956, limits assumed, Eu3+ (LANCE) label in the TR-FRET assays); test: FP on sIR-Fc, competitor FITC-RP9
T7 construct: extracellular domain; Construct of Bass et al., 1996; also called HIR-immunoglobulin heavy chain chimera; not shown: immunoglobulin heavy chain constant domains

[10] = biological target: T7, soluble human insulin …; test: TR-FRET on Eu-sIR-Fc, competitor b-S175
Protocol: (§1) The TR-FRET assays were performed in a 384-well white microplate with a final volume of 30 μl.

[11] = biological target: T1, human insulin receptor (HIR); test: radio-receptor assay on HIR, competitor 125I-insulin
[12] = biological target: T7, soluble human insulin …; test: TR-FRET on Eu-sIR-Fc, competitor b-RP9
Protocol: Time-resolved fluorescence resonance energy transfer assays (TR-FRET) were used for peptide competition studies.
as §1

[13] = biological target: T8, human insulin receptor (HIR) (human, UniProt P06213 28-1382, limits assumed); test: 125I-insulin displacement, purified HIR
T8 construct: solubilised receptor

| Binder | Kd [1] | Comparison IR/IGF-1R [2] | Comparison IGF-1R/IR [3] | Ratio over Background, IGF-1R [4] | Ratio over Background, IR [5] | further results |
| --- | --- | --- | --- | --- | --- | --- |
| SLEEEWAQIQHELYGPAESESFYDWFERQL [S596] | 0.045 nM |  |  |  |  |  |
| DYKDAETSAQVGWQRLWSVWPGDHWSTLDPFYHKLSELLRESGAAAAGAP (not shown: rest of the phage display fusion (remainder of E-Tag, phage coat protein)) [B6L-3-G5-IR] |  | 0.7 ratio | 1.4 ratio | 2 ratio over background | 1.4 ratio over background |  |
| LEEEWAQIQREVWHSPASESFYDWFERQL [S595] | 0.62 nM |  |  |  |  |  |
| DYKDSRVAATKEKRPSDDPFYHKLSELLQGSAAAGAP (not shown: rest of the phage display fusion (remainder of E-Tag, phage coat protein)) [B6Hα-3-F7-IR] |  | 0.3 ratio | 3.1 ratio | 3.1 ratio over background | 1 ratio over background |  |
| FHENFYDWFVRQVSKK [H2C (D117)] |  |  |  |  |  | IC50 [6]: 460 nM; IC50 [7]: 66 nM |
| DYKDGCITAENGAGDPFYHKLSELGGCSAAAGAP (not shown: rest of the phage display fusion (remainder of E-Tag, phage coat protein)) [B6Hα-1-B3-IR] |  | 0.3 ratio | 2.9 ratio | 3.2 ratio over background | 1.1 ratio over background |  |
| DYKDAGSVTSFYDAMEQLVATGTSAAAAGAP (not shown: rest of the phage display fusion (remainder of E-Tag, phage coat protein)) [20E2A-3-A4-IGFR] |  | 0.7 ratio | 1.4 ratio | 2.5 ratio over background | 1.8 ratio over background |  |
| S337 (C-terminal Lig′ joined to chemical linker 23, C-C dimer through chemical linker 23; also called (RP9-Lig)2-23) peptide 1: GSLDESFYDWFERQLGKKX peptide 2: GSLDESFYDWFERQLGKKX |  |  |  |  |  | IC50 [8]: 0.2 nM; IC50 [9]: 1 nM; IC50 [10]: 0.2 nM |
| DYKDCSMAAVAEAGDDDDPFYHKLSELCQGSAAAGAP (not shown: rest of the phage display fusion (remainder of E-Tag, phage coat protein)) [B6Hα-3-F1-IR] |  | 0.5 ratio | 1.8 ratio | 2.4 ratio over background | 1.3 ratio over background |  |
| FHENFYDWFVRQVSKK (also called D117) [H2C] |  |  |  |  |  | IC50 [11]: 700 nM; IC50 [8]: 37 nM; IC50 [9]: 50 nM; IC50 [10]: 410 nM; IC50 [12]: 1630 nM |
| S300 (C-terminal Lig′ joined to linker 14, dimer, C-C) peptide 1: DWLQRNANFYDWFVAELX peptide 2: DWLQRNANFYDWFVAELX |  |  |  |  |  | Kd [13]: 50 nM |
| SIEEEWAQIKCDVWGRGCPSY [S593] | 2.2 nM |  |  |  |  |  |
| SLEEEWAQIECEVWGRGCPSGSLDESFYDWFERQL [S560] | 0.014 nM |  |  |  |  |  |
| GSLDESFYDWFERQLGXK (as printed: Ac-GSLDESFYDWFERQLG-POX-K; N-terminal acetyl; POX between G and the C-terminal K, POX is not explained) [S550] | 40 nM |  |  |  |  |  |
| DYKDLSCLAYSRHGIWRPSTDLGLGRSVGEGSVSTRWRGYDWFEAAAGAP (not shown: rest of the phage display fusion (remainder of E-Tag, phage coat protein)) [40F-4-D1-IGFR] |  | 0.1 ratio | 13.1 ratio | 4.6 ratio over background | 0.3 ratio over background |  |
| DYKDSSETAKMVTGTRDDPFYHKLSELVQGSAAAGAP (not shown: rest of the phage display fusion (remainder of E-Tag, phage coat protein)) [B6Hα-2-D8-IR] |  | 0.3 ratio | 3 ratio | 3 ratio over background | 1 ratio over background |  |
| SIEEEWAQIKCDVWGRGCPSESFYDWFERQL [S517] | 0.006 nM |  |  |  |  |  |

| Binder | Kd [1] | Comparison IR/IGF-1R [2] | Comparison IGF-1R/IR [3] | Ratio over Background, IGF-1R [4] | Ratio over Background, IR [5] | further results |
| --- | --- | --- | --- | --- | --- | --- |
| DYKDQSGSGDFYDWLSRLIRGNGDGAAAGAP (not shown: rest of the phage display fusion (remainder of E-Tag, phage coat protein)) [20E2Bβ-3-C7-IR] |  | 0.5 ratio | 2 ratio | 3.1 ratio over background | 1.5 ratio over background |  |
| TFYSCLASLLTGTPQPNRGPWERCRKK [S327] |  |  |  |  |  | Kd [13]: 2700 nM |
| DYKDGLDHSDAVGVHLGFAWPAQARGRWEAGGLEDTWAGYDWLAAAGAP (not shown: rest of the phage display fusion (remainder of E-Tag, phage coat protein)) [40F-4-B1-IGFR] |  | 0.1 ratio | 13.1 ratio | 3 ratio over background | 0.2 ratio over background |  |
| HHHHHHKLDQEWAWVQCEVYGRGCPSESFYDWFERQLG [S481] | 1.3 nM |  |  |  |  |  |
| DYKDRCGDEEGWQENRRDDPFYHKLSELFGGCAAAGAP (not shown: rest of the phage display fusion (remainder of E-Tag, phage coat protein)) [B6Hα-3-E5-IR] |  | 0.3 ratio | 2.9 ratio | 2.9 ratio over background | 1 ratio over background |  |
| DYKDVRGFQGGTVWPGYEWLRNAAAAAGAP (not shown: rest of the phage display fusion (remainder of E-Tag, phage coat protein)) [R20β-4-E8-IR] |  | 0.1 ratio | 9.7 ratio | 34.9 ratio over background | 3.6 ratio over background |  |
| S414 (C-terminal Lig′ joined to chemical linker 14, Lig′ = lysine with a 2-aminohydroxyacetyl group on the side chain amino group; also called (truncated(-GSLD)RP9(-KK))2-14) peptide 1: ESFYDWFERQLGKX peptide 2: ESFYDWFERQLGKX |  |  |  |  |  | IC50 [8]: 0.2 nM |
| S380 (C-terminal Lig′ joined to chemical linker 9, C-C dimer through chemical linker 9; also called (EE-short-S175-Lig)2-9) peptide 1: EEDWLQRNANFYDWFVAELX peptide 2: EEDWLQRNANFYDWFVAELX |  |  |  |  |  | IC50 [8]: 0.5 nM; IC50 [10]: 10 nM |
| SLEEEWAQVECEVYGRGCPSESFYDWFVRQLG [S555] | 0.057 nM |  |  |  |  |  |
| LDQEWAWVQSEVYGRGSPSESFYDWFERQL [S509] | 5.7 nM |  |  |  |  |  |
| DYKDCGAKMTGTPNDPFYHKLSELLQRGAAAGAP (not shown: rest of the phage display fusion (remainder of E-Tag, phage coat protein)) [B6Hα-3-E6-IR] |  | 0.5 ratio | 1.9 ratio | 2.3 ratio over background | 1.2 ratio over background |  |
| SLEEEWAQVECEVYGRGCPSGSLDESFYHWFERQLG [S542] | 0.027 nM |  |  |  |  |  |
| S229 (C-terminal Lig joined to linker 12, heterodimer F2-F4, C-C) peptide 1: SDGFYNAIELLSX peptide 2: KHLCVLEELFWGASLFGYCSGKKX |  |  |  |  |  | Kd [13]: 4.4 nM |
| DYKDGHYFGSFYDAIDQLVAGMLPGAAAGAP (not shown: rest of the phage display fusion (remainder of E-Tag, phage coat protein)) [20E2A-3-A3-IGFR] |  | 0.5 ratio | 1.9 ratio | 3 ratio over background | 1.5 ratio over background |  |
| DYKDMNVFVSFYDAIDQLVCQRIGCAAAGAP (not shown: rest of the phage display fusion (remainder of E-Tag, phage coat protein)) [20E2A-4-G11-IGFR] |  | 0.4 ratio | 2.6 ratio | 3.3 ratio over background | 1.3 ratio over background |  |
| SLEEEWAQIECEVWGRGCSGSLDESFYDWFERQL [S561] | 0.018 nM |  |  |  |  |  |
